# Results from IntAct's records for PubMed 30126976.
# B1: Ribosomal protein S6 kinase alpha-1 (Homo sapiens), Q15418 (parent)
# chain: MPLAQLKEPWPLMELVPLDPENGQTSGEEAGLQPSKDEGVLKEISITHHVKAGSEKADPSHFELLKVLGQGSFGKVFLVRKVTRPDSGHLYAMKVLKKATLKVRDRVRTKMERDILADVNHPFVVKLHYAFQTEGKLYLILDFLRGGDLFTRLSKEVMFTEEDVKFYLAELALGLDHLHSLGIIYRDLKPENILLDEEGHIKLTDFGLSKEAIDHEKKAYSFCGTVEYMAPEVVNRQGHSHSADWWSYGVLMFEMLTGSLPFQGKDRKETMTLILKAKLGMPQFLSTEAQSLLRALFKRNPANRLGSGPDGAEEIKRHVFYSTIDWNKLYRREIKPPFKPAVAQPDDTFYFDTEFTSRTPKDSPGIPPSAGAHQLFRGFSFVATGLMEDDGKPRAPQAPLHSVVQQLHGKNLVFSDGYVVKETIGVGSYSECKRCVHKATNMEYAVKVIDKSKRDPSEEIEILLRYGQHPNIITLKDVYDDGKHVYLVTELMRGGELLDKILRQKFFSEREASFVLHTIGKTVEYLHSQGVVHRDLKPSNILYVDESGNPECLRICDFGFAKQLRAENGLLMTPCYTANFVAPEVLKRQGYDEGCDIWSLGILLYTMLAGYTPFANGPSDTPEEILTRIGSGKFTLSGGNWNTVSETAKDLVSKMLHVDPHQRLTAKQVLQHPWVTQKDKLPQSQLSHQDLQLVKGAMAATYSALNSSKPTPQLKPIESSILAQRRVRKLPSTTL
# B2: FERM and PDZ domain-containing protein 1 (Homo sapiens), Q5SYB0 (parent)
# chain: MEELETSLFQTRKAHRIEQMVARWLRRSRDSSARAKVAAADGPARNPTQTLIPVRHTVKIDKDTLLQDYGFHISESLPLTVVAVTAGGSAHGKLFPGDQILQMNNEPAEDLSWERAVDILREAEDSLSITVVRCTSGVPKSSFLTEEKRARLKTNPVKVHFAEEVLISGHSQGNSLLCMPNVLKLYLENGQTKAFKFEANTTVKDIILTVKEKLSIRSIEYFALALEEQYSISRLHLLHEEELIQQVVEREESHDYRCLFRVCFVPKDPLDLLKEDPVAFEYLYLQSCSDVLQERFAVEMKCSSALRLAALHIQERIYACAQPQKISLKYIEKDWGIENFISPTLLRNMKGKDIKKAISFHMKRNQNLLEPRQKQLISAAQLRLNYLQILGELKTYGGRIFNATLMLQDRESYIALLVGAKYGISQVINSKLNIMSTLAEFANISRVELTEESEKVSVVKVYLQDVKVLTLLLESNSAKDLACLIAGYYRLLVDPVTSIFLWPGNKQQAHRVSAEEGYESRACSDSEESSEVDCVLEPLSDRRLVKLAPCRSLIKEEQPPGNSPTPEVARRGPSTCGASSTTDSAESEASDSANTESRGYRTSGSSESMDALEEDDLDTCSSSRSTFFHFGSPGLAESIDSDSQEERSGIETSGFLCLLDLAQRANPQCQKTEFSESAALETFGWAPELSTVRLDPRLYEGSHADYYSLCSSVSPASYLSDSSESTASRQGGAPPAWGQQGWTEAQPSSMLEPLALHPPLAFEDGSSDEEYYDAADKLTPPGPPSGPRDVSTAEPSATSLQNKASTSSPENSLPCGPDGRQPSRRGGVKKYAKTLRKRRSFLQTDYTSQVSFPLVPSASLESVDDVCYYDREPYLALGAPSPTVSSLQDMQGEPGLLETKALGLLAPLRETKSTNPASRVMEMEPETMETKSVIDSRVSSISAIRFRIDPNNKENSGVVPAASSSASTPHCSNPGSSGPDTAQARPSQILPLSQDLDGIAPKEPTIEHGDSSFSLSSGDPNPDRACLASNPGLNNVSQGDTLELQLEPHVQLEMGLESFCTNHIQETAPKYTEPLLSPRDEPRSDECGINPGEKIASIPTKEEPQGQLSLERDREVTNKNGTNVFQEESRKDSGDSPGDVSNNVSQTLDISSPAGKIVTSLSLDAPVTGTEQIPPHPPRDPQGQSREPPGQGCQAQEQKLFVELDLDPDFFLGKQTVSPAVPPEGIKAEAPNHVTGQDIAPRDSPEWVCFNPEPSLPEPLPCPQEDPHLETSNHCLLSEGKSDSSSICLSAEKSFLCFAPESHPEVSASLRVATSLGFAGMNEMVAPRIGMDQCSCQFSYATCFRGPQPETEEEDRDLEAHPMAPLTSPPSAGSPVVLPWRPARAHSCTTAPLSRKSHIWPEYCSRALRQLKATPASTPEGFIQLMESLLELQDILETSWGVGNKHPPEKCTWHFTESRSRLCMGSQKLLSSCRHVIRMDQSPEEMQGAVRDTFQHLVQLAGLCFQFTDCSRCSARHREAAGNLRDVVYTYHQFIEAAKSTCERGYHDLSVKLLARQCTALTAAVFCLTQKFRASTAL
# B3: Corticotropin-releasing factor receptor 1 (Homo sapiens), P34998-1 (parent)
# chain: MGGHPQLRLVKALLLLGLNPVSASLQDQHCESLSLASNISGLQCNASVDLIGTCWPRSPAGQLVVRPCPAFFYGVRYNTTNNGYRECLANGSWAARVNYSECQEILNEEKKSKVHYHVAVIINYLGHCISLVALLVAFVLFLRLRPGCTHWGDQADGALEVGAPWSGAPFQVRRSIRCLRNIIHWNLISAFILRNATWFVVQLTMSPEVHQSNVGWCRLVTAAYNYFHVTNFFWMFGEGCYLHTAIVLTYSTDRLRKWMFICIGWGVPFPIIVAWAIGKLYYDNEKCWFGKRPGVYTDYIYQGPMILVLLINFIFLFNIVRILMTKLRASTTSETIQYRKAVKATLVLLPLLGITYMLFFVNPGEDEVSRVVFIYFNSFLESFQGFFVSVFYCFLNSEVRSAIRKRWHRWQDKHSIRARVARAMSIPTSPTRVSFHSIKQSTAV
# B4: FERM and PDZ domain-containing protein 4 (Homo sapiens), Q14CM0 (parent)
# chain: MDVFSFVKIAKLSSHRTKSSGWPPPSGTWGLSQVPPYGWEMTANRDGRDYFINHMTQAIPFDDPRLESCQIIPPAPRKVEMRRDPVLGFGFVAGSEKPVVVRSVTPGGPSEGKLIPGDQIVMINDEPVSAAPRERVIDLVRSCKESILLTVIQPYPSPKSAFISAAKKARLKSNPVKVRFSEEVIINGQVSETVKDNSLLFMPNVLKVYLENGQTKSFRFDCSTSIKDVILTLQEKLSIKGIEHFSLMLEQRTEGAGTKLLLLHEQETLTQVTQRPSSHKMRCLFRISFVPKDPIDLLRRDPVAFEYLYVQSCNDVVQERFGPELKYDIALRLAALQMYIATVTTKQTQKISLKYIEKEWGLETFLPSAVLQSMKEKNIKKALSHLVKANQNLVPPGKKLSALQAKVHYLKFLSDLRLYGGRVFKATLVQAEKRSEVTLLVGPRYGISHVINTKTNLVALLADFSHVNRIEMFSEEESLVRVELHVLDVKPITLLMESSDAMNLACLTAGYYRLLVDSRRSIFNMANKKNTATQETGPENKGKHNLLGPDWNCIPQMTTFIGEGEQEAQITYIDSKQKTVEITDSTMCPKEHRHLYIDNAYSSDGLNQQLSQPGEAPCEADYRSLAQRSLLTLSGPETLKKAQESPRGAKVSFIFGDFALDDGISPPTLGYETLLDEGPEMLEKQRNLYIGSANDMKGLDLTPEAEGIQFVENSVYANIGDVKSFQAAEGIEEPLLHDICYAENTDDAEDEDEVSCEEDLVVGEMNQPAILNLSGSSDDIIDLTSLPPPEGDDNEDDFLLRSLNMAIAAPPPGFRDSSDEEDSQSQAASFPEDKEKGSSLQNDEIPVSLIDAVPTSAEGKCEKGLDNAVVSTLGALEALSVSEEQQTSDNSGVAILRAYSPESSSDSGNETNSSEMTESSELATAQKQSENLSRMFLATHEGYHPLAEEQTEFPASKTPAGGLPPKSSHALAARPATDLPPKVVPSKQLLHSDHMEMEPETMETKSVTDYFSKLHMGSVAYSCTSKRKSKLADGEGKAPPNGNTTGKKQQGTKTAEMEEEASGKFGTVSSRDSQHLSTFNLERTAFRKDSQRWYVATEGGMAEKSGLEAATGKTFPRASGLGAREAEGKEEGAPDGETSDGSGLGQGDRFLTDVTCASSAKDLDNPEDADSSTCDHPSKLPEADESVARLCDYHLAKRMSSLQSEGHFSLQSSQGSSVDAGCGTGSSGSACATPVESPLCPSLGKHLIPDASGKGVNYIPSEERAPGLPNHGATFKELHPQTEGMCPRMTVPALHTAINTEPLFGTLRDGCHRLPKIKETTV
# B5: Mitogen-activated protein kinase 12 (Homo sapiens), P53778 (parent)
# chain: MSSPPPARSGFYRQEVTKTAWEVRAVYRDLQPVGSGAYGAVCSAVDGRTGAKVAIKKLYRPFQSELFAKRAYRELRLLKHMRHENVIGLLDVFTPDETLDDFTDFYLVMPFMGTDLGKLMKHEKLGEDRIQFLVYQMLKGLRYIHAAGIIHRDLKPGNLAVNEDCELKILDFGLARQADSEMTGYVVTRWYRAPEVILNWMRYTQTVDIWSVGCIMAEMITGKTLFKGSDHLDQLKEIMKVTGTPPAEFVQRLQSDEAKNYMKGLPELEKKDFASILTNASPLAVNLLEKMLVLDAEQRVTAGEALAHPYFESLHDTEDEPQVQKYDDSFDDVDRTLDEWKRVTYKEVLSFKPPRQLGARVSKETPL
# Variants of: B1
# Settings: with scrib_human SCRIB
row,Variant,effect of a mutation on the interaction
1,S732E;T734E,increasing interaction strength
2,S732E,increasing interaction strength

# Variants of: B2
# Settings: with scrib_human SCRIB
# Target sequence in this assay (Q14160 whole entry): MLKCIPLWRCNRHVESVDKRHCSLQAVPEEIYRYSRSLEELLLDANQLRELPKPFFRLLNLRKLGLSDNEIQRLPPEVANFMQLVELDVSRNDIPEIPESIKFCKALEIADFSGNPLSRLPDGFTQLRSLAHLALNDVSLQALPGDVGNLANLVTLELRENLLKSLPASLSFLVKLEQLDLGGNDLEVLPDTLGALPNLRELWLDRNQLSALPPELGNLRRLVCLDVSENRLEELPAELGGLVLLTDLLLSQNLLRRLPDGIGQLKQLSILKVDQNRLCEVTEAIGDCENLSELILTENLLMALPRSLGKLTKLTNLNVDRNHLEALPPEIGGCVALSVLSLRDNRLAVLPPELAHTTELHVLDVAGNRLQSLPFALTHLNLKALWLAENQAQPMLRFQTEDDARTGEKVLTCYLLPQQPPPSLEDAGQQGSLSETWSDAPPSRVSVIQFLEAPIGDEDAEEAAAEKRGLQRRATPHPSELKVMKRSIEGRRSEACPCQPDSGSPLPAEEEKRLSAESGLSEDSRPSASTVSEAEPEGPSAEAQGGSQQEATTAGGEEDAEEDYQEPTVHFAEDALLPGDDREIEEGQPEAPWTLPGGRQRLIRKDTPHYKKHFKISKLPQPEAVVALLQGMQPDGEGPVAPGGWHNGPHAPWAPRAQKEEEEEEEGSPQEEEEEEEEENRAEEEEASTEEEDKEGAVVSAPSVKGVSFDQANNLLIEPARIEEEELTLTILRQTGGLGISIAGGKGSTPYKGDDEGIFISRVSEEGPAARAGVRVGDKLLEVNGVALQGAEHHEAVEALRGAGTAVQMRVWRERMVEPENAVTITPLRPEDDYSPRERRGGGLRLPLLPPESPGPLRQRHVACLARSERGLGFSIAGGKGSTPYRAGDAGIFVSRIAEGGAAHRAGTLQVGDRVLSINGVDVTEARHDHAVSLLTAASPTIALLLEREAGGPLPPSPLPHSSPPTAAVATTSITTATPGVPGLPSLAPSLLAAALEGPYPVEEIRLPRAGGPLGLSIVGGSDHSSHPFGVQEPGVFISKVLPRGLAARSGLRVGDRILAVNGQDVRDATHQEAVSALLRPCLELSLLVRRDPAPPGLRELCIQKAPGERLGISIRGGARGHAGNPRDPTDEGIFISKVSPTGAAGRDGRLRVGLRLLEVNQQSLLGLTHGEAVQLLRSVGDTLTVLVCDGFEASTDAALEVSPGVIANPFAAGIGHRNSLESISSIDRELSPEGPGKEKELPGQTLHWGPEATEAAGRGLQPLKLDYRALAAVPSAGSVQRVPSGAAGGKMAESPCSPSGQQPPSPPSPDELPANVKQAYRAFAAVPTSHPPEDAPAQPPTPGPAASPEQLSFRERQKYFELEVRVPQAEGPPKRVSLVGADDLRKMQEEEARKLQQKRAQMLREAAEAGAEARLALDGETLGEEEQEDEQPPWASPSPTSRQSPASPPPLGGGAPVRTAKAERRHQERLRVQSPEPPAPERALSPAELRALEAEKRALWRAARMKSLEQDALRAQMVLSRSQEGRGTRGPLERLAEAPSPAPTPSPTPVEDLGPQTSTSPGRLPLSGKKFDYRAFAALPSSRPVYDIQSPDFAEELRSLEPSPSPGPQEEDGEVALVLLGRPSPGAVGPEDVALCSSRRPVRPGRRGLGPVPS
row,Variant,effect of a mutation on the interaction
1,S1575E,increasing interaction strength

# Variants of: B3
# Settings: with dlg1_human DLG1, Q12959
# Target sequence in this assay (Q12959 whole entry, looked up): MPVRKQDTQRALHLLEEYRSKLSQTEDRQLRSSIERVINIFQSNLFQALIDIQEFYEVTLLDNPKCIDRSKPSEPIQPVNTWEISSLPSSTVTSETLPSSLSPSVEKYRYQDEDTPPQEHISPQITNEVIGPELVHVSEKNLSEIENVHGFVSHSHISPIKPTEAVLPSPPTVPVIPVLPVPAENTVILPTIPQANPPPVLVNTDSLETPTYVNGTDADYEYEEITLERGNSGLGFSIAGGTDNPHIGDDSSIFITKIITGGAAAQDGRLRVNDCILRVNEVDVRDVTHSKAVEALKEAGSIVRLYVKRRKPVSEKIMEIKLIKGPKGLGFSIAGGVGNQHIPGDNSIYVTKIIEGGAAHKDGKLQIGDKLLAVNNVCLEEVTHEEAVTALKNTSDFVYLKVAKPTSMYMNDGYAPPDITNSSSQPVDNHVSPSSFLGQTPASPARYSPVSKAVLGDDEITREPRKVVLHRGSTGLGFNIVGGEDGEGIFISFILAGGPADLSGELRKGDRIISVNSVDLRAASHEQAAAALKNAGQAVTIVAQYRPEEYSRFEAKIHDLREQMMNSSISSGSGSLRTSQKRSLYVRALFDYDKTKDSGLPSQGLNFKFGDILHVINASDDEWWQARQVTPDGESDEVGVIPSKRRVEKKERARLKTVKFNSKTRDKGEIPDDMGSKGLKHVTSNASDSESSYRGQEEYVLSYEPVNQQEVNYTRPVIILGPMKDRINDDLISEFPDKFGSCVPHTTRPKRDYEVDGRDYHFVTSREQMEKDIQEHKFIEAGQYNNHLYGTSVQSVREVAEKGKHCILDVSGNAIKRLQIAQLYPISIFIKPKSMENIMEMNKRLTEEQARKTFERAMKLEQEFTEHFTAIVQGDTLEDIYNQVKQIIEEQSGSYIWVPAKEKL
row,Variant,effect of a mutation on the interaction
1,MGGHPQLRLVKALLLLGLNPVSASLQDQHCESLSLASNISGLQCNASVDLIGTCWPRSPAGQLVVRPCPAFFYGVRYNTTNNGYRECLANGSWAARVNYSECQEILNEEKKSKVHYHVAVIINYLGHCISLVALLVAFVLFLRLRPGCTHWGDQADGALEVGAPWSGAPFQVRRSIRCLRNIIHWNLISAFILRNATWFVVQLTMSPEVHQSNVGWCRLVTAAYNYFHVTNFFWMFGEGCYLHTAIVLTYSTDRLRKWMFICIGWGVPFPIIVAWAIGKLYYDNEKCWFGKRPGVYTDYIYQGPMILVLLINFIFLFNIVRILMTKLRASTTSETIQYRKAVKATLVLLPLLGITYMLFFVNPGEDEVSRVVFIYFNSFLESFQGFFVSVFYCFLNSEVRSAIRKRWHRWQDKHSIRARVARAMSIPTSPTRVSFHEIKQETAV [S437E;S441E],increasing interaction strength
2,MGGHPQLRLVKALLLLGLNPVSASLQDQHCESLSLASNISGLQCNASVDLIGTCWPRSPAGQLVVRPCPAFFYGVRYNTTNNGYRECLANGSWAARVNYSECQEILNEEKKSKVHYHVAVIINYLGHCISLVALLVAFVLFLRLRPGCTHWGDQADGALEVGAPWSGAPFQVRRSIRCLRNIIHWNLISAFILRNATWFVVQLTMSPEVHQSNVGWCRLVTAAYNYFHVTNFFWMFGEGCYLHTAIVLTYSTDRLRKWMFICIGWGVPFPIIVAWAIGKLYYDNEKCWFGKRPGVYTDYIYQGPMILVLLINFIFLFNIVRILMTKLRASTTSETIQYRKAVKATLVLLPLLGITYMLFFVNPGEDEVSRVVFIYFNSFLESFQGFFVSVFYCFLNSEVRSAIRKRWHRWQDKHSIRARVARAMSIPTSPTRVSFHSIKQETAV [S441E],increasing interaction strength

# Variants of: B3
# Settings: with scrib_human SCRIB
# Target sequence in this assay (Q14160 whole entry): as the sequence (Q14160 whole entry) above
row,Variant,effect of a mutation on the interaction
1,MGGHPQLRLVKALLLLGLNPVSASLQDQHCESLSLASNISGLQCNASVDLIGTCWPRSPAGQLVVRPCPAFFYGVRYNTTNNGYRECLANGSWAARVNYSECQEILNEEKKSKVHYHVAVIINYLGHCISLVALLVAFVLFLRLRPGCTHWGDQADGALEVGAPWSGAPFQVRRSIRCLRNIIHWNLISAFILRNATWFVVQLTMSPEVHQSNVGWCRLVTAAYNYFHVTNFFWMFGEGCYLHTAIVLTYSTDRLRKWMFICIGWGVPFPIIVAWAIGKLYYDNEKCWFGKRPGVYTDYIYQGPMILVLLINFIFLFNIVRILMTKLRASTTSETIQYRKAVKATLVLLPLLGITYMLFFVNPGEDEVSRVVFIYFNSFLESFQGFFVSVFYCFLNSEVRSAIRKRWHRWQDKHSIRARVARAMSIPTSPTRVSFHSIKQETAV [S441E],with no effect

# Variants of: B4
# Settings: with scrib_human SCRIB
# Target sequence in this assay (Q14160 whole entry): as the sequence (Q14160 whole entry) above
row,Variant,effect of a mutation on the interaction
1,T1320E,disrupting interaction strength

# Variants of: B4
# Settings: with dlg1_human DLG1, Q12959
# Target sequence in this assay (Q12959 whole entry, looked up): as the sequence (Q12959 whole entry, looked up) above
row,Variant,effect of a mutation on the interaction
1,T1320E,disrupting interaction strength

# Variants of: B5
# Settings: with scrib_human SCRIB
# Target sequence in this assay (Q14160 whole entry): as the sequence (Q14160 whole entry) above
row,Variant,effect of a mutation on the interaction
1,MSSPPPARSGFYRQEVTKTAWEVRAVYRDLQPVGSGAYGAVCSAVDGRTGAKVAIKKLYRPFQSELFAKRAYRELRLLKHMRHENVIGLLDVFTPDETLDDFTDFYLVMPFMGTDLGKLMKHEKLGEDRIQFLVYQMLKGLRYIHAAGIIHRDLKPGNLAVNEDCELKILDFGLARQADSEMTGYVVTRWYRAPEVILNWMRYTQTVDIWSVGCIMAEMITGKTLFKGSDHLDQLKEIMKVTGTPPAEFVQRLQSDEAKNYMKGLPELEKKDFASILTNASPLAVNLLEKMLVLDAEQRVTAGEALAHPYFESLHDTEDEPQVQKYDDSFDDVDRTLDEWKRVTYKEVLSFKPPRQLGARVSKEEPL [T365E],disrupting interaction strength

# Variants of: B5
# Settings: with dlg1_human DLG1, Q12959
# Target sequence in this assay (Q12959 whole entry, looked up): as the sequence (Q12959 whole entry, looked up) above
row,Variant,effect of a mutation on the interaction
1,MSSPPPARSGFYRQEVTKTAWEVRAVYRDLQPVGSGAYGAVCSAVDGRTGAKVAIKKLYRPFQSELFAKRAYRELRLLKHMRHENVIGLLDVFTPDETLDDFTDFYLVMPFMGTDLGKLMKHEKLGEDRIQFLVYQMLKGLRYIHAAGIIHRDLKPGNLAVNEDCELKILDFGLARQADSEMTGYVVTRWYRAPEVILNWMRYTQTVDIWSVGCIMAEMITGKTLFKGSDHLDQLKEIMKVTGTPPAEFVQRLQSDEAKNYMKGLPELEKKDFASILTNASPLAVNLLEKMLVLDAEQRVTAGEALAHPYFESLHDTEDEPQVQKYDDSFDDVDRTLDEWKRVTYKEVLSFKPPRQLGARVSKEEPL [T365E],disrupting interaction strength
